Kd and Km data for 4 molecules are collected here from paper PMC8660799, “Cryo-EM reveals unique structural features of the FhuCDB Escherichia coli ferrichrome importer” (Communications Biology, 2021).

Read-outs that look alike come from different tables or passages of the source.

Data set [1] concerns the target BtuF (Escherichia coli) (UniProt P37028). To be noted: cited from earlier work.
Data set [2] shares this target. Particulars: cited from earlier work. This is another data set of the same source.
The target in data set [3] is T1, FhuCB subcomplex (membrane subunit FhuB and cytosolic ATPase FhuC of the ferrichrome importer), wild type (Escherichia coli, UniProt P07821 1-265; P06972 1-660, red-tris-NTA 2nd generation dye on the His-tag (in the MST experiments)).
T1 construct: cloned from the genome with the operon; a thrombin site stands between the His-tag and FhuC; Made from FhuCB-pET15b (FhuD gene deleted from FhuCDB-pET15b); The copy numbers (two FhuC, one FhuB) are told for the FhuCDB structure; In the gel filtration experiment the same chains came from the FhuCDB construct, co-expressed with FhuD; also called Fhu importer; wild-type FhuCB; source: E. coli …
T1 sequence (looked up) 1: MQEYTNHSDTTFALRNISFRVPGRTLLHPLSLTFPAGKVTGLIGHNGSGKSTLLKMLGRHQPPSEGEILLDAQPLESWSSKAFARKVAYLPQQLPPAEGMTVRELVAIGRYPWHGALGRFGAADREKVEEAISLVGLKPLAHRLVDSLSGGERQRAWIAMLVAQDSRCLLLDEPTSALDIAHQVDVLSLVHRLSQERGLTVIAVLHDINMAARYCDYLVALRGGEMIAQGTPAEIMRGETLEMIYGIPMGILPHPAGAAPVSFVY
T1 sequence (looked up) 2: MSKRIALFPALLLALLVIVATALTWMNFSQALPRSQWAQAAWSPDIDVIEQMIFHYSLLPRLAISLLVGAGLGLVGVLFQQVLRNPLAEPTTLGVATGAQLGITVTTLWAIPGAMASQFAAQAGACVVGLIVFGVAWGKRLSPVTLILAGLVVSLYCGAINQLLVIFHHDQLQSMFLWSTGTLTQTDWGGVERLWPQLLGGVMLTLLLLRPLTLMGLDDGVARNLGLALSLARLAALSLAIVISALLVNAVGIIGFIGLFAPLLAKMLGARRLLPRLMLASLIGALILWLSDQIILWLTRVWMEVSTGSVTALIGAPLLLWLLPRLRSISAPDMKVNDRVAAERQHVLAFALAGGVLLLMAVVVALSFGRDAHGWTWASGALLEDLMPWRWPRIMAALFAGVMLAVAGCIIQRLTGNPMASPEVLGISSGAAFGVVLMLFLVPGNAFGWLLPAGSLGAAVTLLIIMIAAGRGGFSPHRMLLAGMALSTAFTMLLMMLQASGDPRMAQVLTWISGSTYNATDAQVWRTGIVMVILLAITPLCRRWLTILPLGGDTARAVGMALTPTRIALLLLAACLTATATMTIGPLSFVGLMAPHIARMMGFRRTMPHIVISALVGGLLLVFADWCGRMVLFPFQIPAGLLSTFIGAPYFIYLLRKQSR
In words: MST; 40 nM FhuCB in detergent, His-tag labelled with red-tris-NTA 2nd generation dye; serial dilution of 1.6 μM FhuD with substrate ferrichrome; with ATP; Monolith NT.115pico, 20% LED power, medium MST power. To be noted: both partners purified.

Data set [4] concerns the target T1, FhuCB subcomplex (membrane subunit FhuB …). The data set is described as follows: MST; 40 nM FhuCB in detergent, His-tag labelled with red-tris-NTA 2nd generation dye; serial dilution of 1.6 μM FhuD with substrate ferrichrome; without ATP-Mg; Monolith NT.115pico, 20% LED power, medium MST power. To be noted: both partners purified.
Substrate in data set [5]: Nc1ncnc2c1ncn2[C@@H]1O[C@H](COP(=O)(O)OP(=O)(O)OP(=O)(O)O)[C@@H](O)[C@H]1O
In words: ATPase assay in proteoliposomes, malachite green phosphate detection. Format: biochemical, Escherichia coli. Particulars: MgCl2, 37 °C.

Chain of BtuF (Escherichia coli) (P37028 23-266): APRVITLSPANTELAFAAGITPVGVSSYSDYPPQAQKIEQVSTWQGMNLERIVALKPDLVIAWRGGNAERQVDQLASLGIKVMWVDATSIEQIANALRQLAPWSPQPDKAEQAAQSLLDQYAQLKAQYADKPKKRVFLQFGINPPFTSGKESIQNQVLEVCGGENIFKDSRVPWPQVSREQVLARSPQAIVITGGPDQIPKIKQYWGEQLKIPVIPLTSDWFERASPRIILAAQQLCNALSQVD

Turning to BtuCD (from UniProt P06609), the Kd in data set [1] was 0.00012 nM; in data set [2], 21.1 nM.

B1: FhuD, periplasmic substrate-binding protein, expressed alone (natural protein, Escherichia coli, UniProt P07822 31-296, looked up)
chain: AAIDPNRIVALEWLPVELLLALGIVPYGVADTINYRLWVSEPPLPDSVIDVGLRTEPNLELLTEMKPSFMVWSAGYGPSPEMLARIAPGRGFNFSDGKQPLAMARKSLTEMADLLNLQSAAETHLAQYEDFIRSMKPRFVKRGARPLLLTTLIDPRHMLVFGPNSLFQEILDEYGIPNAWQGETNFWGSTAVSIDRLAAYKDVDVLCFDHDNSKDMDALMATPLWQAMPFVRAGRFQRVPAVWFYGATLSAMHFVRVLDNAIGGKA
notes: the gene was amplified and cloned into pET15b; Used without substrate and loaded with the small molecule ferrichrome (told apart by the assays); also called SBP; ferrichrome-loaded FhuD
Regarding B1, the Kd in data set [3] is ~1.03 nM; in data set [4], ~12.2 nM.

B2: FhuCB subcomplex (Escherichia coli K-12) (protein)
chain: MQEYTNHSDTTFALRNISFRVPGRTLLHPLSLTFPAGKVTGLIGHNGSGKSTLLKMLGRHQPPSEGEILLDAQPLESWSSKAFARKVAYLPQQLPPAEGMTVRELVAIGRYPWHGALGRFGAADREKVEEAISLVGLKPLAHRLVDSLSGGERQRAWIAMLVAQDSRCLLLDEPTSALDIAHQVDVLSLVHRLSQERGLTVIAVLHDINMAARYCDYLVALRGGEMIAQGTPAEIMRGETLEMIYGIPMGILPHPAGAAPVSFVY
notes: full-length FhuB and FhuC without FhuD; N-terminal His-tag and thrombin site on FhuC; pET15b, E. coli BL21(DE3) C43; purified in LMNG, reconstituted in E. coli polar lipid proteoliposomes; with Iron(3+)-hydroxamate import system permease protein FhuB
As for B2, the Km in data set [5] (Michaelis-Menten fit with Hill coefficient (cooperative), no FhuD) came to 690 ± 80 µM.

B3: FhuCB + FhuD (ATPase assay) (Escherichia coli K-12) (protein)
chain: MQEYTNHSDTTFALRNISFRVPGRTLLHPLSLTFPAGKVTGLIGHNGSGKSTLLKMLGRHQPPSEGEILLDAQPLESWSSKAFARKVAYLPQQLPPAEGMTVRELVAIGRYPWHGALGRFGAADREKVEEAISLVGLKPLAHRLVDSLSGGERQRAWIAMLVAQDSRCLLLDEPTSALDIAHQVDVLSLVHRLSQERGLTVIAVLHDINMAARYCDYLVALRGGEMIAQGTPAEIMRGETLEMIYGIPMGILPHPAGAAPVSFVY
notes: FhuCB (N-terminal His-tag and thrombin site on FhuC) in proteoliposomes with purified FhuD enclosed; with Iron(3+)-hydroxamate import system permease protein FhuB
In the case of B3, in data set [5] (Michaelis-Menten fit with Hill coefficient, 1 μM FhuD enclosed, no ferrichrome), the Km worked out at 740 ± 50 µM.

The Kd is the equilibrium constant for the complex coming apart. As a reminder, the Km is the substrate concentration at which the rate is half of its maximum.
